Assay results published in patent publication US10772928B2, “Modulation and detection of a neuronal alternative splicing regulatory network for treatment and diagnosis of neurological disorders” (The Governing Council of the University of Toronto, priority 2014, dated 2020).

T1: nSR100 (Mus musculus, UniProt Q8BKA3)
T1 construct: host or cells: mouse N2A cells
T1 sequence (Q8BKA3 1-608): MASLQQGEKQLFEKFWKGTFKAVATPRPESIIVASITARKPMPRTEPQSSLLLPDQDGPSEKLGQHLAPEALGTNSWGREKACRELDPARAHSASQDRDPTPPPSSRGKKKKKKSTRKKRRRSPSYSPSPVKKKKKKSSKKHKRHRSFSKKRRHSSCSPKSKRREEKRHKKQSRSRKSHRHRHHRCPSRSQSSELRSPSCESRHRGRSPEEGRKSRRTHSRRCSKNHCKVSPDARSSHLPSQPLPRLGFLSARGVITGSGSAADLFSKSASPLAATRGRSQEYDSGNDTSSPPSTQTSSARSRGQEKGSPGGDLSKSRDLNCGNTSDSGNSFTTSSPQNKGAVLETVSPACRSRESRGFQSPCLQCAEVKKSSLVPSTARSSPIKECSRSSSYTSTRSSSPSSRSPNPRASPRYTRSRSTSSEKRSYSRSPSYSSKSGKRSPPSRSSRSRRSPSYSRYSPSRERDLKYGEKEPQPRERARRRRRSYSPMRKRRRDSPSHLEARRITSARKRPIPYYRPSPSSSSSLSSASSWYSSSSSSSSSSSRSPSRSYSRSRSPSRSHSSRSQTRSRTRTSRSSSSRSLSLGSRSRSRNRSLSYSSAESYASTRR


Biological target: T1, nSR100
Assay: AP-MS nSR100 interaction partners from mouse N2A cells (Table 5)
Type: binding
Details: for AvgP (average of the SAINT scores) / MaxP (maximal SAINT score): bait Srrm4; for FoldChange between the prey Avg spectra of the bait and control purifications: bait Srrm4, 0.1 added to prevent division by 0; for AvgSpec (average number of spectra per replicate): bait Srrm4, 2 replicates; for Spectra (number of spectra for the prey in the purification of the bait): AP-MS; for SpecSum: bait Srrm4, sum of spectra over 2 replicates
[1] = bait Srrm4, biological replicate 1 (first number of the cell)
[2] = bait Srrm4, biological replicate 2 (second number of the cell)

From the text: By applying affinity purification coupled to mass-spectrometry (AP-MS), several interaction nSR100 partner proteins were detected that provide insight into mechanisms of post-translational regulation of nSR100 levels.

Molecule	AvgP (average of the SAINT scores)	MaxP (maximal SAINT score)	FoldChange between the prey Avg spectra of the bait and control purifications	AvgSpec (average number of spectra per replicate)	Spectra (number of spectra for the prey in the purification of the bait) [1]	Spectra (number of spectra for the prey in the purification of the bait) [2]	SpecSum
Rbm39 (protein, UniProt Q8VH51 2-530, looked up) RNA-binding protein 39: ADDIDIEAMLEAPYKKDENKLNSANGHEERSKKRKKSKSRSRSHERKRSKSKERKRSRDRERKKSKSRERKRSRSKERRRSRSRSRDRRFRGRYRSPYSGPKFNSAIRGKIGLPHSIKLSRRRSRSKSPFRKDKSPVREPIDNLTPEERDARTVFCMQLAARIRPRDLEEFFSTVGKVRDVRMISDRNSRRSKGIAYVEFVDVSSVPLAIGLTGQRVLGVPIIVQASQAEKNRAAAMANNLQKGSAGPMRLYVGSLHFNITEDMLRGIFEPFGRIESIQLMMDSETGRSKGYGFITFSDSECAKKALEQLNGFELAGRPMKVGHVTERTDASSASSFLDSDELERTGIDLGTTGRLQLMARLAEGTGLQIPPAAQQALQMSGSLAFGAVAEFSFVIDLQTRLSQQTEASALAAAASVQPLATQCFQLSNMFNPQTEEEVGWDTEIKDDVIEECNKHGGVIHIYVDKNSAQGNVYVKCPSIAAAIAAVNALHGRWFAGKMITAAYVPLPTYHNLFPDSMTATQLLVPSRR	1	1	5.46	65.5	65	66	131
Plk1 (protein, UniProt Q07832 1-603, looked up) Serine/threonine-protein …: MNAAAKAGKLARAPADLGKGGVPGDAVPGAPVAAPLAKEIPEVLVDPRSRRQYVRGRFLGKGGFAKCFEISDADTKEVFAGKIVPKSLLLKPHQKEKMSMEISIHRSLAHQHVVGFHDFFEDSDFVFVVLELCRRRSLLELHKRRKALTEPEARYYLRQIVLGCQYLHRNQVIHRDLKLGNLFLNEDLEVKIGDFGLATKVEYEGERKKTLCGTPNYIAPEVLSKKGHSFEVDVWSIGCIMYTLLVGKPPFETSCLKETYLRIKKNEYSIPKHINPVAASLIQKMLQTDPTARPTIHELLNDEFFTSGYIPARLPITCLTIPPRFSIAPSSLDPSSRKPLKVLNKGVENPLPDRPREKEEPVVRETNEAIECHLSDLLQQLTSVNASKPSERGLVRQEEAEDPACIPIFWVSKWVDYSDKYGLGYQLCDNSVGVLFNDSTRLILYNDGDSLQYIERDGTESYLTVSSHPNSLMKKITLLNYFRNYMSEHLLKAGANITPREGDELARLPYLRTWFRTRSAIILHLSNGTVQINFFQDHTKLILCPLMAAVTYINEKRDFQTYRLSLLEEYGCCKELASRLRYARTMVDKLLSSRSASNRLKAS	1	1	430	43	43|43	43|43	86
Rnps1 (protein, UniProt Q99M28 1-305, looked up) RNA-binding protein with …: MDLSGVKKKSLLGVKENNKKSSTRAPSPTKRKDRSDEKSKDRSKDKGATKESSEKDRGRDKTRKRRSASSGSSSTRSRSSSTSSSGSSTSTGSSSGSSSSSASSRSGSSSTSRSSSSSSSSGSPSPSRRRHDNRRRSRSKSKPPKRDEKERKRRSPSPKPTKVHIGRLTRNVTKDHIMEIFSTYGKIKMIDMPVERMHPHLSKGYAYVEFENPDEAEKALKHMDGGQIDGQEITATAVLAPWPRPPPRRFSPPRRMLPPPPMWRRSPPRMRRRSRSPRRRSPVRRRSRSPGRRRHRSRSSSNSSR	1	1	17	25.5	26	25	51
Tfip11 (protein, UniProt Q9ERA6 1-838, looked up) Tuftelin-interacting protein …: MSLSHLYRDGEGHLDDDDDDERENFEITDWDLQNEFNPNRQRHWQTKEEATYGVWAERDSDEERPSFGGKRARDYSAPVNFISAGLKKGAAEEADSEDSDAEEKPVKQEDFPKDLGPKKLKTGGNFKPSQKGFSGGTKSFMDFGSWERHTKGIGQKLLQKMGYVPGRGLGKNAQGIINPIEAKQRKGKGAVGAYGSERTTQSLQDFPVADSEEEAEEEFQKELSQWRKDPSGSKKKPKYSYKTVEELKAKGRVSKKLTAPQKELSQVKVIDMTGREQKVYYSYSQISHKHSVPDEGVPLLAQLPPTAGKEARMPGFALPELEHNLQLLIERTEQEIIQSDRQLQYERDMVVSLSHELEKTAEVLAHEERVISNLSKVLALVEECERRMQPHGADPLTLDECARIFETLQDKYYEEYRLADRADLAVAIVYPLVKDYFKDWHPLEDGSYGTQIISKWKSLLENDQLLSHSSQDLSSDAFHRLMWEVWMPFVRNVVAQWQPRNCEPMVDFLDSWAHIIPVWILDNILDQLIFPKLQKEVDNWNPLTDTVPIHSWIHPWLPLMQARLEPLYSPVRSKLSSALQKWHPSDASAKLILQPWKEVLTPGSWEAFMLRNIVPKLGMCLGELVINPHQQHMDAFYWVMDWEGMISVSSLVGLLEKHFFPKWLQVLCSWLSNSPNYEEITKWYLGWKSMFSDQVLAHPSVKDKFNEALDIMNRAVSSNVGAYMQPGARENIAYLTHTERRKDFQYEAMQERREAENMAQRGIGVAASSVPMNFKDLIETKAEEHNIVFMPVIGKRHEGKQLYTFGRIVIYIDRGVVFVQGEKTWVPTSLQSLIDMAK	1	1	40	4	5	3	8
Ap2a1 (protein, UniProt P17426 1-977, looked up) AP-2 complex subunit alpha-1: MPAVSKGDGMRGLAVFISDIRNCKSKEAEIKRINKELANIRSKFKGDKALDGYSKKKYVCKLLFIFLLGHDIDFGHMEAVNLLSSNKYTEKQIGYLFISVLVNSNSELIRLINNAIKNDLASRNPTFMCLALHCIANVGSREMGEAFAADIPRILVAGDSMDSVKQSAALCLLRLYKASPDLVPMGEWTARVVHLLNDQHMGVVTAAVSLITCLCKKNPDDFKTCISLAVSRLSRIVSSASTDLQDYTYYFVPAPWLSVKLLRLLQCYPPPEDAAVKGRLVECLETVLNKAQEPPKSKKVQHSNAKNAILFETISLIIHYDSEPNLLVRACNQLGQFLQHRETNLRYLALESMCTLASSEFSHEAVKTHIDTVINALKTERDVSVRQRAADLLYAMCDRSNAKQIVSEMLRYLETADYAIREEIVLKVAILAEKYAVDYSWYVDTILNLIRIAGDYVSEEVWYRVLQIVTNRDDVQGYAAKTVFEALQAPACHENMVKVGGYILGEFGNLIAGDPRSSPPVQFSLLHSKFHLCSVATRALLLSTYIKFINLFPETKATIQGVLRAGSQLRNADVELQQRAVEYLTLSSVASTDVLATVLEEMPPFPERESSILAKLKRKKGPGAASALDDSRRDTSSNDINGGVEPTPSTVSTPSPSADLLGLRAAPPPAAPPAPVGGNLLVDVFSDGPTAQPSLGPTPEEAFLSELEPPAPESPMALLADPAPAADPGPEDIGPPIPEADELLNKFVCKNSGVLFENQLLQIGVKSEFRQNLGRMYLFYGNKTSVQFQNFLPTVVHPGDLQTQLAVQTKRVAAQVDGGAQVQQVLNIECLRDFLTPPLLSVRFRYGGTAQSLTLKLPVTINKFFQPTEMAAQDFFQRWKQLSLPLQEAQKIFKANHPMDAEVTKAKLLGFGSALLDNVDPNPENFVGAGIIQTKALQVGCLLRLEPNAQAQMYRLTLRTSKEPVSRHLCELLAQQF	1	1	7.2	54	46	62	108
Cwc27 (protein, UniProt Q3TKY6 2-469, looked up) Spliceosome-associated …: SNIYIQEPPTNGKVLLKTTAGDIDIELWSKEAPKACRNFIQLCLEAYYDNTIFHRVVPGFIVQGGDPTGTGTGGESIYGAPFKDEFHSRLRFNRRGLVAMANAGPHDNGSQFFFTLGRADELNNKHTIFGKVTGDTVYNMLRLTEVDIDDEERPRNPHRIKSCEVLFNPFDDITPREIKKPKNEKPEEEVKKLKPKGTKNFSLLSFGEEAEEEEEEVNRVSQSMKGRSKSSHDLLKDDPHLSSVPAVESEKDDATGDLEDDGEDDSAERDEYMEDDEKNLMRERIAKRLKKDASASVKSAGDGEKKPASRSEELRKEARQLKRELLAAKQKKETAIKVEEGREEEEAAPDGAVAEYRREKQKYEALRKQQPKKGTSREDQTLALLSQFKSKLTQAITETPENSVPEAEVEDDEGWMSHVLQFEDKTRKVKDASMQDSDTFEIYDPRNPVNKRRREESKKLLREKKERR	1	1	85	8.5	6	11	17
